According to the supplement of paper PMC11246515:
± gives the standard deviation of the averaged measurements.

Test: total protein half-life in vivo (active degradation + dilution); higher = more stable protein
[1] = E. coli NCM3722 delta-clpP delta-lon delta-hslV, growth: N-lim chemostat, doubling time 6 h
[2] = E. coli NCM3722 delta-clpP, growth: N-lim chemostat, doubling time 6 h
[3] = E. coli NCM3722 delta-hslV, growth: N-lim chemostat, doubling time 6 h
[4] = E. coli NCM3722 delta-lon, growth: N-lim chemostat, doubling time 6 h
[5] = E. coli NCM3722 delta-smpB, growth: N-lim chemostat, doubling time 6 h
[6] = wild type E. coli NCM3722, growth: C-lim chemostat, doubling time 3 h
[7] = wild type E. coli NCM3722, growth: C-lim chemostat, doubling time 6 h
[8] = wild type E. coli NCM3722, growth: C-lim chemostat, doubling time 12 h
[9] = wild type E. coli NCM3722, growth: N-lim chemostat, doubling time 6 h
[10] = wild type E. coli NCM3722, growth: N-lim chemostat, doubling time 12 h
[11] = wild type E. coli NCM3722, growth: P-lim chemostat, doubling time 6 h
[12] = wild type E. coli NCM3722, growth: P-lim chemostat, doubling time 12 h

| Sequence | total protein half-life in vivo [1] | total protein half-life in vivo [2] | total protein half-life in vivo [3] | total protein half-life in vivo [4] | total protein half-life in vivo [5] | total protein half-life in vivo [6] | total protein half-life in vivo [7] | total protein half-life in vivo [8] | total protein half-life in vivo [9] | total protein half-life in vivo [10] | total protein half-life in vivo [11] | total protein half-life in vivo [12] |
| --- | --- | --- | --- | --- | --- | --- | --- | --- | --- | --- | --- | --- |
| MKKQRNLRSMAAQAVEQVVEQGQSLSNILPPLQQKVSDKDKALLQELCFGVLRTLSQLDWLINKLMARPMTGKQRTVHYLIMVGLYQLLYTRIPPHAALAETVEGAIAIKRPQLKGLINGVLRQFQRQQEELLAEFNASDARYLHPSWLLKRLQKAYPEQWQSIVEANNQRPPMWLRINRTHHSRDSWLALLDEAGMKGFPHADYPDAVRLETPAPVHALPGFEDGWVTVQDASAQGCMTWLAPQNGEHILDLCAAPGGKTTHILEVAPEAQVVAVDIDEQRLSRVYDNLKRLGMKATVKQGDGRYPSQWCGEQQFDRILLDAPCSATGVIRRHPDIKWLRRDRDIPELAQLQSEILDAIWPHLKTGGTLVYATCSVLPEENSLQIKAFLQRTADAELCETGTPEQPGKQNLPGAEEGDGFFYAKLIKK | 5.88 ± 1 h | 5.642 ± 0.039 h | 5.05 ± 1.1 h | 5.17 ± 0.74 h | 4.92 ± 0.25 h | 2.88 ± 0.45 h | 6.66 ± 1.9 h | 12.4 ± 0.73 h | 6.14 ± 0.58 h | 10.9 ± 0.76 h | 6.96 ± 0.51 h | 12.7 ± 0.89 h |
| MKKKILAFGLISALFCSTPAMADMNRTTKGALLGAGVGLLTGNGVNGVLKGAAVGAGVGAVTEKGRDGKNARKGAKVGAAVGAVTGVLTGNGLEGAIKGAVIGGTGGAILGKMK [Q7DFV3] |  |  | 1.46 ± 0.28 h |  | 1.39 h | 1.42 ± 0.11 h | 1.67 h |  | 1.78 ± 0.36 h | 1.87 h | 2.752 ± 0.007 h | 5.14 ± 0.75 h |
| MKVGFIGLGIMGKPMSKNLLKAGYSLVVADRNPEAIADVIAAGAETASTAKAIAEQCDVIITMLPNSPHVKEVALGENGIIEGAKPGTVLIDMSSIAPLASREISEALKAKGIDMLDAPVSGGEPKAIDGTLSVMVGGDKAIFDKYYDLMKAMAGSVVHTGEIGAGNVTKLANQVIVALNIAAMSEALTLATKAGVNPDLVYQAIRGGLAGSTVLDAKAPMVMDRNFKPGFRIDLHIKDLANALDTSHGVGAQLPLTAAVMEMMQALRADGLGTADHSALACYYEKLAKVEVTR [P0ABQ2] | 3.86 ± 0.51 h | 3.02 ± 0.079 h | 3.5 ± 0.65 h | 3.57 ± 0.23 h | 2.9 ± 0.15 h | 2.9 ± 0.065 h | 5.47 ± 0.28 h | 9.56 ± 1 h | 3.13 ± 0.46 h | 4.13 ± 0.28 h | 5.31 ± 0.075 h | 10.3 ± 0.15 h |
| MGSNIHGISCTANNYLKQAWNDIKNEYEKNQTYSITLFENTLVCFMRLYNELRRKVNEEDTPCLECESLEKEFEEMQNDNDLSLFMRILRTNDTQIYSGVSGGITYTIQYVRDIDIVRVSLPGRASESITDFKGYYWYNFMEYIENINACDDVFSEYCFDDENISVQPERINTPGISDLDSDIDLSGISFIQRETNQALGLKYAPVDGDGYCLLRAILVLKQHDYSWALVSYKMQKEVYNEFIKMVDKKTIEALVDTAFYNLREDVKTLFGVDLQSDNQIQGQSSLMSWSFLFFKKQFIDSCLNNEKCILHLPEFIFNDNKNLLALDTDTSDRIKAVKNFLVVLSDSICSLFIVNSNVASISLGNESFSTDEDLEYGYLMNTGNHYDVYLPPELFAQAYKLNNKEMNAQLDYLNRYAI |  |  |  | 5.18 h |  |  |  |  |  |  |  |  |
| MRKLTALFVASTLALGAANLAHAADTTTAAPADAKPMMHHKGKFGPHQDMMFKDLNLTDAQKQQIREIMKGQRDQMKRPPLEERRAMHDIIASDTFDKVKAEAQIAKMEEQRKANMLAHMETQNKIYNILTPEQKKQFNANFEKRLTERPAAKGKMPATAE |  | 3.6 h |  | 4.86 ± 2.6 h | 4.4 ± 1.1 h | 2.63 h | 4.54 ± 0.28 h | 8.06 ± 4.6 h |  | 1.93 h | 3.86 ± 0.27 h | 6.54 ± 0.43 h |
| MSQLVYFSSSSENTQRFIERLGLPAVRIPLNERERIQVDEPYILIVPSYGGGGTAGAVPRQVIRFLNDEHNRALLRGVIASGNRNFGEAYGRAGDVIARKCGVPWLYRFELMGTQSDIENVRKGVTEFWQRQPQNA [P0A772] | 4.46 ± 0.33 h |  |  |  |  |  |  |  |  |  |  |  |
| MSQLPGLSRETRESIAMYHLRVPQTEEELERYYQFRWEMLRKPLHQPKGSERDAWDAMAHHQMVVDEQGNLVAVGRLYINADNEASIRFMAVHPDVQDKGLGTLMAMTLESVARQEGVKRVTCSAREDAVEFFAKLGFVNQGEITTPTTTPIRHFLMIKPVATLDDILHRGDWCAQLQQAWYEHIPLSEKMGVRIQQYTGQKFITTMPETGNQNPHHTLFAGSLFSLATLTGWGLIWLMLRERHLGGTIILADAHIRYSKPISGKPHAVADLGALSGDLDRLARGRKARVQMQVEIFGDETPGAVFEGTYIVLPAKPFGPYEEGGNEEE [P0ADQ2] | 5.56 ± 0.43 h | 4.46 ± 0.32 h | 5.1 ± 0.92 h | 4.93 ± 0.26 h | 4.38 ± 0.27 h | 2.8559 ± 0.0026 h | 5.57 ± 0.27 h | 9.83 ± 0.3 h | 4.71 ± 0.12 h | 8.84 ± 1.4 h | 5.88 ± 0.23 h | 11.8 ± 0.52 h |
| MKQPAPVYQRIAGHQWRHIWLSGDIHGCLEQLRRKLWHCRFDPWRDLLISVGDVIDRGPQSLRCLQLLEQHWVCAVRGNHEQMAMDALASQQMSLWLMNGGDWFIALADNQQKQAKTALEKCQHLPFILEVHSRTGKHVIAHADYPDDVYEWQKDVDLHQVLWSRSRLGERQKGQGITGADHFWFGHTPLRHRVDIGNLHYIDTGAVFGGELTLVQLQ |  |  |  |  |  |  |  |  |  |  |  | 5.48 h |
| MSNLTGTDKSVILLMTIGEDRAAEVFKHLSQREVQTLSAAMANVTQISNKQLTDVLAEFEQEAEQFAALNINANDYLRSVLVKALGEERAASLLEDILETRDTASGIETLNFMEPQSAADLIRDEHPQIIATILVHLKRAQAADILALFDERLRHDVMLRIATFGGVQPAALAELTEVLNGLLDGQNLKRSKMGGVRTAAEIINLMKTQQEEAVITAVREFDGELAQKIIDEMFLFENLVDVDDRSIQRLLQEVDSESLLIALKGAEQPLREKFLRNMSQRAADILRDDLANRGPVRLSQVENEQKAILLIVRRLAETGEMVIGSGEDTYV [P0ABZ1] | 4.83 h | 5.19 h |  |  |  | 2.31 ± 0.33 h | 3.78 ± 0.1 h | 5.85 ± 0.23 h |  |  |  |  |
